In vitro neutralization IC50 and neutralization IC50 data for 18 molecules are collected here from patent US20200165325A1.

Substitutions are numbered along the chain they refer to. Read-outs that look alike come from different tables or passages of the source.

For test [1], the target named is HIV-1 Env of strain AC10.0.29 (HIV-1).
The target of test [2] is HIV-1 Env of strain CAP210.2.00.E8 (HIV-1).
The target in test [3] is HIV-1 Env of strain CAP45.2.00.G3 (HIV-1).
Test [4] deals with HIV-1 Env of strain Du172.17 (HIV-1).
Test [5] addresses HIV-1 Env of strain SC422661.8 (HIV-1).
For test [6], the target named is HIV-1 Env of strain TRO.11 (HIV-1).
The target of test [7] is Env (gp120) of HIV-1 strain AC10.0.29 (HIV-1).
The target of test [8] is Env (gp120) of HIV-1 strain CAP210.2.00.E8 (HIV-1).
The target in test [9] is Env (gp120) of HIV-1 strain CAP45.2.00.G3 (HIV-1).
Test [10] has as its target Env (gp120) of HIV-1 strain Du172.17 (HIV-1).
Test [11] has as its target Env (gp120) of HIV-1 strain SC422661.8 (HIV-1).
Test [12] concerns the target Env (gp120) of HIV-1 strain TRO.11 (HIV-1).
Test [13] concerns the target Env (gp120) of HIV-1 strain AC10.0.29 (HIV-1). The source holds these as a separate data set.
Test [14] deals with Env (gp120) of HIV-1 strain CAP45.2.00.G3 (HIV-1). This is another data set of the same source.
Test [15] concerns the target Env (gp120) of HIV-1 strain QH0692.42 (HIV-1).
Test [16] concerns the target Env (gp120) of HIV-1 strain SC422661.8 (HIV-1). The source holds these as a separate data set.
For test [17], the target named is Env (gp120) of HIV-1 strain T257-31 (HIV-1).
Test [18] has as its target Env (gp120) of HIV-1 strain TRO.11 (HIV-1). The source holds these as a separate data set.
Test [19] addresses Env (gp120) of HIV-1 strain ZM214M.PL15 (HIV-1).
The target in test [20] is HIV-1 Env of strain AC10.0.29 (HIV-1). The source holds these as a separate data set.
Test [21] addresses HIV-1 Env of strain CAP45.2.00.G3 (HIV-1). The source holds these as a separate data set.
The target of test [22] is HIV-1 Env of strain QH0692.42 (HIV-1).
In test [23] the target is HIV-1 Env of strain SC422661.8 (HIV-1). This is another data set of the same source.
Test [24] addresses HIV-1 Env of strain T257-31 (HIV-1).
Test [25] has as its target HIV-1 Env of strain TRO.11 (HIV-1). This is another data set of the same source.
Test [26] deals with HIV-1 Env of strain ZM214M.PL15.11 (HIV-1).
Test [27] deals with Env (gp120) of HIV-1 strain 3016.v5.c45 (HIV-1).
Test [28] has as its target Env (gp120) of HIV-1 strain C2101.c01 (HIV-1).

With 3BNC55 T54W IgG (antibody), the In vitro neutralization IC50 in test [1] is more than 50 µg/mL; in test [2], more than 50 µg/mL; in test [3] it was more than 50 µg/mL; in test [4], more than 50 µg/mL; in test [5], 0.6 µg/mL; in [6], more than 50 µg/mL.
Regarding 3BNC60 T54W IgG (antibody), the In vitro neutralization IC50 in [1] was determined as 3.1 µg/mL; in test [2], 5 µg/mL; in [3], 19 µg/mL; in test [4], 0.04 µg/mL; in test [5] it was 0.1 µg/mL; in test [6], 0.06 µg/mL.
As for 3BNC117 T54W IgG (antibody), the In vitro neutralization IC50 in test [1] amounted to 2.8 µg/mL; in [2], 2.8 µg/mL; in [3], 23 µg/mL; in [4], 0.9 µg/mL; in [5], 0.07 µg/mL; in test [6], 0.6 µg/mL.
For the molecule 12A12 Y54W IgG (antibody), the In vitro neutralization IC50 in [1] was 0.5 µg/mL; in test [2] it was more than 50 µg/mL; in [3], 0.2 µg/mL; in [4] it was 0.1 µg/mL; in [5], 0.2 µg/mL; in [6] it was 0.2 µg/mL.
In the case of NIH45-46 G54H IgG (antibody), the neutralization IC50 in [7] is 0.6 µg/mL; in test [8] it was more than 50 µg/mL; in test [9], more than 50 µg/mL; in test [10], more than 50 µg/mL; in test [11], 0.09 µg/mL; in test [12], 0.2 µg/mL.
As for NIH45-46 G54I IgG (antibody), the neutralization IC50 in [7] is 8.6 µg/mL; in test [8], more than 50 µg/mL; in test [9], more than 50 µg/mL; in test [10], more than 50 µg/mL; in [11], 0.1 µg/mL; in [12] it was 10 µg/mL.
NIH45-46 G54L IgG (antibody): the neutralization IC50 is 1.7 µg/mL in test [7]; more than 50 µg/mL in test [8]; more than 50 µg/mL in test [9]; more than 50 µg/mL in test [10]; 0.1 µg/mL in test [11]; 0.3 µg/mL in test [12].
On to NIH45-46 G54M IgG (antibody), for which the neutralization IC50 in [7] is 1.5 µg/mL; in test [8], more than 50 µg/mL; in [9] it was more than 50 µg/mL; in test [10], more than 50 µg/mL; in test [11], 0.06 µg/mL; in test [12], 0.3 µg/mL.
On to NIH45-46 Y99dA (antibody), for which the neutralization IC50 in test [13] is 4.4 µg/mL; in [14], more than 50 µg/mL; in test [15] it was 2.1 µg/mL; in test [16], 0.08 µg/mL; in [17], 2.4 µg/mL; in test [18], more than 50 µg/mL. The molecule further registered a neutralization IC50 in test [19] of 1.1 µg/mL.
Regarding “NIH45-46 heavy chain paired with VRC01 light chain, IgG (antibody)”, the In vitro neutralization IC50 in test [20] was 1 µg/mL; in test [21], 2.1 µg/mL; in [22], 0.9 µg/mL; in test [23], 0.2 µg/mL; in [24], 0.6 µg/mL; in test [25] it was 0.3 µg/mL. The In vitro neutralization IC50 in test [26] was determined as 0.6 µg/mL.
In the case of NIH45-46 Δ99a-99d (antibody), the neutralization IC50 in test [13] is 13 µg/mL; in [14], more than 50 µg/mL; in [15], 3.7 µg/mL; in test [16], 1.4 µg/mL; in test [17], 7 µg/mL; in [18], more than 50 µg/mL. The same molecule showed a neutralization IC50 in [19] of 2.2 µg/mL.
With VRC01 (antibody), the neutralization IC50 was 0.16 µg/mL in test [27] and 0.36 µg/mL in test [28].
For VRC01 IgG (antibody), the In vitro neutralization IC50 in [20] turned out to be 0.8 µg/mL; in [21] it was 1.8 µg/mL; in [22], 0.7 µg/mL; in test [23], 0.2 µg/mL; in test [25] it was 0.5 µg/mL; in [26] it was 0.8 µg/mL.
On to “VRC01 heavy chain paired with NIH45-46 light chain, IgG (antibody)”, for which the In vitro neutralization IC50 in test [20] is 4.5 µg/mL; in test [21] it was more than 50 µg/mL; in test [22] it was 1.2 µg/mL; in test [23], 0.4 µg/mL; in test [24], 15 µg/mL; in test [25] it was 24 µg/mL. Also, the In vitro neutralization IC50 in [26] turned out to be 1.8 µg/mL.

B1: 3BNC55 IgG (wild type) (antibody, V domains shown)
VH: QVQLVQSGTAVKRPGASVRVSCQASGYTFTDYFIYWWRQAPGQGLEWLGWINPLTSQPSYPSRFQGRLTLTRDTFDEMLYMDLRGLRSDDTGIYFCARRHSDYCDFDIWGSGTQIIVSS
VL: DIQMTQSPSSLSASVGDKVTITCQTSAGYLNWYQQRRGRAPKLLMYDGSRLVTGVPSRFSGRRWGTQYNLTIGSLQPEDIATYYCQVYEFFGPGTRLDLKS
As to B1, the In vitro neutralization IC50 is more than 50 µg/mL in [1]; more than 50 µg/mL in test [2]; more than 50 µg/mL in [3]; 2 µg/mL in test [4]; 0.3 µg/mL in test [5]; 7.6 µg/mL in test [6].

B2: 12A12 IgG (wild type) (antibody, V domains shown)
VH: SQHLVQSGTQVKKPGASVRISCQASGYSFTDYVLHWWRQAPGQGLEWMGWIKPVYGARNYARRFQGRINFDRDIYREIAFMDLSGLRSDDTALYFCARDGSGDDTSWHLDPWGQGTLVIVSA
VL: DIQMTQSPSSLSASVGDRVTITCQAGQGIGSSLQWYQQKPGKAPKLLVHGASNLHRGVPSRFSGSGFHTTFSLTISGLQRDDFATYFCAVLEFFGPGTKVEIKR
For the molecule B2, the In vitro neutralization IC50 in test [1] is 0.6 µg/mL; in [2], more than 50 µg/mL; in test [3], 0.4 µg/mL; in [4], 0.2 µg/mL; in test [5], 0.2 µg/mL; in [6], 0.3 µg/mL.

B3: 3BNC60 IgG (wild type) (antibody)
heavy: QVHLSQSGAAVTKPGASVRVSCEASGYKISDHFIHWWRQAPGQGLQWVGWINPKTGQPNNPRQFQGRVSLTRQASWDFDTYSFYMDLKAVRSDDTAIYFCARQRSDFWDFDVWGSGTQVTVSS
light: DIQMTQSPSSLSARVGDTVTITCQANGYLNWYQQRRGKAPKLLIYDGSKLERGVPARFSGRRWGQEYNLTINNLQPEDVATYFCQVYEFIVPGTRLDLKRTVA
Regarding B3, the In vitro neutralization IC50 in test [1] is 13 µg/mL; in [2], 4.7 µg/mL; in test [3], 10 µg/mL; in test [4] it was 0.05 µg/mL; in test [5] it was 0.1 µg/mL; in [6], 0.07 µg/mL.

B4: 3BNC117 IgG (wild type) (antibody)
heavy: B3 heavy with H3Q, S5L, K28N, S30R, H32Y, Q73H, Y81F, V90L, I97V, F107Y
light: B3 light with R14S, A56S, V79I, I90V
On to B4, for which the In vitro neutralization IC50 in [1] is 6.5 µg/mL; in [2], 11 µg/mL; in [3], 16 µg/mL; in [4] it was 0.04 µg/mL; in [5], 0.07 µg/mL; in [6] it was 0.6 µg/mL.
